Experimental data reported in patent US20130101549A1 (Biogen, published 2013).

Key:
human LTβR-Ig [1] = molecular target: T1, human LTβR-Ig (human, UniProt P36941 31-227); experiment: ELISA on LTbR-Ig, dilutions of medium of transfected CHO cells
T1 construct: Expressed and purified in house; also called hLTbR-Ig; human LTBR-Ig

human HVEM-Ig [2] = molecular target: T2, human HVEM-Ig (human, UniProt Q92956 39-202); experiment: ELISA, huHVEM-Ig coated at 2 ug/ml, HRP anti-Flag mAb; the number is C of the printed 4-P fit y=(A-D)/(1+(x/C)^B)+D (A 0.117, B 0.801, D 1.551, R^2 0.998)
T2 construct: Expressed and purified in house; also called HVEM-Fc; Herpes virus entry mediator-Ig
T2 sequence (looked up): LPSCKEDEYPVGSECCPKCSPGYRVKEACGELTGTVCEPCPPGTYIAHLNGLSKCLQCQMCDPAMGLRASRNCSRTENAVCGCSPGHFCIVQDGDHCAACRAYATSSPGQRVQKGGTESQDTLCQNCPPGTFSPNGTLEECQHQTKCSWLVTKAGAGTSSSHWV

murine LTβR-Ig [3] = molecular target: T3, murine LTβR-Ig (mouse, UniProt P50284 31-223); experiment: ELISA, muLTBR-Ig coated at 2 ug/ml, HRP anti-Flag mAb; the number is C of the printed 4-P fit y=(A-D)/(1+(x/C)^B)+D (A 0.125, B 0.915, D 1.615, R^2 0.999)
T3 construct: Expressed and purified in house; also called mLTbR; murine LTBR-Ig
T3 sequence (P50284 31-223): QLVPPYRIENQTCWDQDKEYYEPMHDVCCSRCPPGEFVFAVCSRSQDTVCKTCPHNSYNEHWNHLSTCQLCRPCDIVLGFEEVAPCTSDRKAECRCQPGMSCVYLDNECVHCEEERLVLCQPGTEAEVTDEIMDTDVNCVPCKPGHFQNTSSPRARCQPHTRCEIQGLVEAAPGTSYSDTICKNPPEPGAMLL
Protocol: (§1) Human and murine ErbB2-Fc were obtained from R&D Systems. Wells of 96-well plates were coated with 2 ug/ml or 0.2 ug/ml of human or murine HER2-Fc by incubation overnight at 4-8° C. with either of these six proteins (80 ul/well of a 0.2 or 2 ug/ml solution in PBS). Wells were emptied, filled completely with a solution of PBS with 1% BSA (blocking buffer) and incubated at room temperature for 1 hour. Wells were emptied, washed twice PBS containing 0.05% Tween 20 (PBST) and filled with the samples (80 ul/well of 3× dilution series of the standard and supernatants in blocking buffer) prepared in another 96-well plate. […] After 1-hour incubation, the wells were emptied and filled with a solution of HRP substrate prepared freshly. The color was left to develop for 3 minutes and was stopped by addition of an equal volume of 1N H₂SO₄. Absorbance was measured at 450 nm using a Plate Reader (SpectraMax, Molecular Devices). The data was processed and graphs were created using SoftMax Pro software.
(§2) Human and murine LTBR-Ig were expressed and purified in house.

murine LTβR-Ig [4] = molecular target: T3, murine LTβR-Ig; experiment: ELISA, muLTBR-Ig coated at 0.2 ug/ml, HRP anti-Flag mAb; the number is C of the printed 4-P fit (A 0.044, B 0.606, D 1.329, R^2 0.999); the points end at OD about 1.1 at 10000 ng/ml, upper plateau not reached
Protocol: as §1, §2

human HVEM-Ig [5] = molecular target: T2, human HVEM-Ig; experiment: ELISA, huHVEM-Ig coated at 0.2 ug/ml, HRP anti-Flag mAb; the number is C of the printed 4-P fit (A 0.22, B 1.302, D 1.232, R^2 0.998)
Protocol: as §1
Human and murine HVEM-Ig were expressed and purified in house.

human LTβR-Ig [6] = molecular target: T1, human LTβR-Ig; experiment: ELISA, huLTBR-Ig coated at 2 ug/ml, HRP anti-Flag mAb; the number is C of the printed 4-P fit y=(A-D)/(1+(x/C)^B)+D (A 0.103, B 0.763, D 1.654, R^2 0.999)
murine HVEM-Ig [7] = molecular target: T4, murine HVEM-Ig (mouse, UniProt Q80WM9 39-210); experiment: ELISA, muHVEM-Ig coated at 2 ug/ml, HRP anti-Flag mAb; the number is C of the printed 4-P fit y=(A-D)/(1+(x/C)^B)+D (A 0.143, B 0.757, D 1.559, R^2 0.999)
T4 construct: Expressed and purified in house
T4 sequence (looked up): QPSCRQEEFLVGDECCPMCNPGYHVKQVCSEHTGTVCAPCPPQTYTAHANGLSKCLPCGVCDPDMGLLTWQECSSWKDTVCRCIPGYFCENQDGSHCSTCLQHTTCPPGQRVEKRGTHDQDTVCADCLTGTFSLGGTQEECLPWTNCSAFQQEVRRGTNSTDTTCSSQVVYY

human LTβR-Ig [8] = molecular target: T1, human LTβR-Ig; experiment: ELISA, huLTBR-Ig coated at 0.2 ug/ml, HRP anti-Flag mAb; the number is C of the printed 4-P fit (A 0.164, B 0.898, D 1.528, R^2 0.999)
murine HVEM-Ig [9] = molecular target: T4, murine HVEM-Ig; experiment: ELISA, muHVEM-Ig coated at 0.2 ug/ml, HRP anti-Flag mAb; the number is C of the printed 4-P fit (A 0.027, B 0.575, D 1.071, R^2 0.994)

T1 sequence (P36941 31-227): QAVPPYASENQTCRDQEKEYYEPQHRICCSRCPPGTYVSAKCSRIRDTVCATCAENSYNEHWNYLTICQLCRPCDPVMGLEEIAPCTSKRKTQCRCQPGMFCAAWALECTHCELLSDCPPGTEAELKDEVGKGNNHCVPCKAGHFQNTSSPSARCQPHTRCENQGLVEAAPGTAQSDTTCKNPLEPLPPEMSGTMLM

B1: anti-IGFR C06 Fab-hLIGHT fusion protein (C06-hLIGHT) (other)
heavy: EVQLLESGGGLVQPGGSLRLSCAASGFTFSIYRMQWVRQAPGKGLEWVSGISPSGGTTWYADSVKGRFTISRDNSKNTLYLQMNSLRAEDTAVYYCARWSGGSGYAFDIWGQGTMVTVSSASTKGPSVFPLAPSSKSTSGGTAALGCLVKDYFPEPVTVSWNSGALTSGVHTFPAVLQSSGLYSLSSVVTVPSSSLGTQTYICNVNHKPSNTKVDKKVEPKSCDKGGGGSGGGGSGGGGSGGGGSNPAAHLTGANSSLTGSGGPLLWETQLGLAFLRGLSYHDGALVVTKAGYYYIYSKVQLGGVGCPLGLASTITHGLYKRTPRYPEELELLVSQQSPCGRATSSSRVWWDSSFLGGVVHLEAGEEVVVRVLDERLVRLRDGTRSYFGAFMV
light: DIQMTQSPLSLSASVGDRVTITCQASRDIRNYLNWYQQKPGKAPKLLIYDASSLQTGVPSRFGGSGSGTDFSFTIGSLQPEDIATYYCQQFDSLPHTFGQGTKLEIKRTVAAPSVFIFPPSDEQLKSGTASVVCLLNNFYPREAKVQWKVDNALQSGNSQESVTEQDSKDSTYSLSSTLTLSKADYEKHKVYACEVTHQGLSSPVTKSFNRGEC
notes: Tested as culture medium of transiently transfected CHO cells; not measured for this fusion; also called pBIIBC06-256
binding result (human LTβR-Ig [1]): binds

B2: huLight (ligand, human, UniProt O43557 66-240, looked up)
ligand chain: GEMVTRLPDGPAGSWEQLIQERRSHEVNPAAHLTGANSSLTGSGGPLLWETQLGLAFLRGLSYHDGALVVTKAGYYYIYSKVQLGGVGCPLGLASTITHGLYKRTPRYPEELELLVSQQSPCGRATSSSRVWWDSSFLGGVVHLEAGEKVVVRVLDERLVRLRDGTRSYFGAFMV
notes: soluble, Flag-tagged; also called Flag-huLIGHT (control)
EC50 (human HVEM-Ig [2]): 1.3 ng/mL
EC50 (murine LTβR-Ig [3]): 2.39 ng/mL
EC50 (murine LTβR-Ig [4]): 810 ng/mL
EC50 (human HVEM-Ig [5]): 1.27 ng/mL
EC50 (human LTβR-Ig [6]): 2.1 ng/mL
EC50 (murine HVEM-Ig [7]): 1.34 ng/mL
EC50 (human LTβR-Ig [8]): 1.33 ng/mL
EC50 (murine HVEM-Ig [9]): 18.6 ng/mL
